Data: patent publication US20220249369A1, “BIOLOGICAL BITS AS COMPUTABLE ELEMENTS WITHIN LIVING SYSTEMS” (GEORGIA TECH RESEARCH CORPORATION, priority 2018, published 2022)
Where no end group is shown, it is not given here. [ ]: non-standard residue; d: D form. The star is where a group is joined. 5FAM = O=C1OC2(c3ccc(O)cc3Oc3cc(O)ccc32)c2ccc(C(=O)*)cc21

Legend:
[1] = target: plasmin (Homo sapiens, UniProt P00747); test: Protease cleavage assay, U-gate on two-state protease bit; assay type: biochemical; settings: n=3; for state probability (relative cleavage velocity) after first U-gate: plasmin exposed to state 0 and state 1 substrates
plasmin, sequence (P00747 581-810 limits assumed, species assumed): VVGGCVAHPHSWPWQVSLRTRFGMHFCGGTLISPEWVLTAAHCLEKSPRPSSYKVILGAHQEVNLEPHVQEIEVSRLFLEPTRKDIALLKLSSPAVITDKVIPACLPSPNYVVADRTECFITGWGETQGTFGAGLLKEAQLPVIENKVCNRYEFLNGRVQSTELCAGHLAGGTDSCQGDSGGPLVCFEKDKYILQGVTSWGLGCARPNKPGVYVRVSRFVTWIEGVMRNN
plasmin, sequence (P00747 97-580 partner limits assumed, species assumed): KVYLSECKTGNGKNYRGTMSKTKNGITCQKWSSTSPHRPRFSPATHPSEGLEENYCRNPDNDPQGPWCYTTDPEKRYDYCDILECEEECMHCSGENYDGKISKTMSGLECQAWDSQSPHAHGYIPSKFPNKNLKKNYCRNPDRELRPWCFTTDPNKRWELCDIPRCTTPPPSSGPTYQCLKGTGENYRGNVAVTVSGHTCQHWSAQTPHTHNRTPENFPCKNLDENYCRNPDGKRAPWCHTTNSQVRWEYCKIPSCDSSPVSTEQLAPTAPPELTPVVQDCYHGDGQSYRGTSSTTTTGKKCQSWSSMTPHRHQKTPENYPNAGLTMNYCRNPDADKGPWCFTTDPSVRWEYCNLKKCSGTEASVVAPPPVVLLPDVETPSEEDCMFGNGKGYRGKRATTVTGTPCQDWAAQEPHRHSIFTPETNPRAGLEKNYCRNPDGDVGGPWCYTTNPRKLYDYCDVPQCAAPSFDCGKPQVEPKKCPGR
Description: Protease cleavage assays: All protease cleavage assays were performed with a BioTek Cytation 5 Imaging Plate Reader, taking fluorescent measurements at 485/528 nm and 540/575 nm (excitation/emission) for read-outs measuring peptide substrates terminated with FITC (Fluorescein isothiocyanate) and 5-TAMRA (5-Carboxytetramethylrhodamine), respectively. Kinetic measurements were taken every minute over the course of 60-120 minutes at 37° C. West Nile Virus NS3 protease (WNVp) and Tobacco Etch Virus protease (TEVp), along with their substrates, inhibitors and buffers were obtained from Anaspec, Inc. (Fremont, Calif.). Phospholipase C (PLC), Phosphatidylinositol-Specific (from Bacillus cereus) was purchased from Thermo Fisher Scientific (Waltham, Mass.). Activity RFU measurements were normalized to time 0 measurement, and as such represent fold change in signal. Granzyme B (GzmB) was purchased from PeproTech, Inc. (Rocky Hill, N.J.). Thrombin and Factor XIa were purchased from Haematologic Technologies (Essex, Vt.). Outer Membrane Protease T (OmpT, Protease 7) was purchased from Lifespan Biosciences (Seattle, Wash.). C1r was purchased from Millipore Sigma (Burlington, Mass.). GzmB, Thrombin, Factor XIa, and C1r fluorescent peptide substrates were custom ordered from CPC Scientific (Sunnyvale, Calif.). OmpT fluorescent peptide substrate was custom ordered from Genscript (Piscataway, N.J.). See Table 1 and Table 2 for more information regarding proteases, substrates, and inhibitors.
For FIGS. 5G-5I and 5N-5Q: 2 uL of thrombin (10.1 mg/mL) or plasmin (6.9 mg/mL) were added to 18 uL of respective state 1 or state 0 substrate (2 uM). Velocities of Thrombin and Plasmin cutting their respective state 1 or state 0 substrates were calculated over the first 5 minutes of incubation. These velocities were normalized by the sum of the state 1 and state 0 velocity. Therefore, the values plotted as probability in FIG. 4 are relative velocities. […]

[2] = tested on: DH5α Escherichia coli; assay type: cell-based; settings: 37° C., 1 hour
Excerpt: FIGS. 8A-8B show the results of unlocking peptide caged liposomes with increasing peptide crosslinking densities (levels 0-8). Eight levels of increasing peptide cage crosslinking were used to determine the number of bacteria required to unlock each level. FIG. 8C is a graph showing bacterial cytotoxicity measurement of drug-loaded liposomes. Conditions are moving from left to right: Bacteria only control, bacteria plus free drug, bacteria plus drug-loaded liposome without lipase, and bacteria plus drug-loaded liposome with lipase. Samples were incubated with bacteria at 37° C. for eight hours and plated. CFU were quantified to estimate bacteria viability. Error bars are plotted as standard deviation (n=3). RFU stands for “Relative Fluorescence Unit” and is plotted as fold change (FC) from initial fluorescence at time=0. Bacterial Culture and Cytotoxicity Assay: DH5α Escherichia coli were cultured in LB broth (Lennox) at 37° C. and plated on LB agar (Lennox) plates. LB broth was purchased from Millipore Sigma (Burlington, Mass.) and LB agar was purchased from Invitrogen (Carlsbad, Calif.). AMP and locked AMP were custom ordered from Genscript (Piscataway, N.J.). […] Bacterial cell viability was measured by making eight 10-fold serial dilutions, and plating three 10 μL spots on an LB agar plate. Plates were incubated overnight at 37° C., and CFUs were counted. […]

Substance	state probability (relative cleavage velocity) after first U-gate [1]	state 0 probability (relative cleavage velocity) after second U-gate ([1]; state 0 substrate added in large molar excess)	cytolytic activity against bacteria compared to untreated controls ([2]; locked drug without protease)	reduction in bacterial colonies ([2]; protease-cleaved (TEVp))
5FAM-GLQRALEI-K(CPQ2)-k-C (5FAM-GLQRALEIK(CPQ2)[dK]C) [CC9, quenched fluorescent plasmin substrate (state 0)]	45%	93%		
5FAM-KYLGRSYKV-K(CPQ2)-C (5FAM-KYLGRSYKVK(CPQ2)C) [CC6, quenched fluorescent protease substrate (state 1)]	55%			
EEEEEEEEENLYFQGRRRRRRRRR [Locked AMP p1, polyarginine AMP locked by polyglutamic acid via TEV-cleavable linker]			no significant cytolytic activity	significant reduction in bacterial colonies
